We go through four molecules from publication PMC2699623 (Structure (London, England : 1993), 2009).

One may read the Kd as the equilibrium constant for the complex coming apart. Low values mean a tighter complex, high ones a looser complex. Broadly, the stoichiometry N is a count of units in the complex or per binding partner.

Data set [1] deals with peptide derived from EIAV Gag p9 (equine infectious anemia virus (EIAV)). The experiment in a line: ITC. (Isothermal titration calorimetry measures the heat released or taken up as one component is titrated into another.)
Data set [2] addresses ALIXV, the middle domain (V-domain) of ALIX (monomeric form) (UniProt Q8WUM4). In words: SEC-MALS. On the technique in general: SEC sorts molecules by how far they enter the pores of the column.
In data set [3] the target is ALIX_(Bro1-V), ALIX lacking the proline rich domain (monomeric form). The experiment in a line: SEC-MALS.
The data set “SEC-MALS” deals with the molecule itself. The experiment in a line: SEC-MALS.

In turn, “dimeric ALIXV (from UniProt Q8WUM4 360-702) (complex)” returned a Kd in data set [1] of 8 µM. With “ALIXV, the middle domain (V-domain) of ALIX (monomeric form) (from UniProt Q8WUM4 360-702) (domain or fragment)”, the stoichiometry N in data set [2] was determined as 2. For the molecule “ALIX_(Bro1-V), ALIX lacking the proline rich domain (monomeric form) (domain or fragment)”, the stoichiometry N in data set [3] was 2.

B1: ALIX_(Vmut2) (domain or fragment)
chain: PVSVQQSLAAYNQRKADLVNRSIAQMREATTLANGVLASLNLPAAIEDVSGDTVPQSILTKSRSVIEQGGIQTVDQLIKELPELLQRNREILDESLRLLDEEEATDNDLRAKFKERWQRTPSNELYKPLRAEGTNFRTVLDKAVQADGQVKECYQSHRDTIVLLCKPEPELNAAIPSANPAKTMQGSEVVNVLKSLLSNLDEVKKEREGLENDLKSVNFDMTSKFLTALAQDGVINEEALSVTELDRVYGGLTTKVQESLKKQEGLLKNIQVSHQEFSKMKQSYKKANLREEVLKNLATAYDNFVELVANLKEGTKFYNELTEILVRFQNKCSDIVFARKTER
On to B1, for which, in “SEC-MALS”, the “stoichiometry N” value amounted to 2.
